# Biological target: human complement C3 (human)
# Test: MST
# Chain of human complement C3 (human) (chain, as listed by the source, chain 1 of 2): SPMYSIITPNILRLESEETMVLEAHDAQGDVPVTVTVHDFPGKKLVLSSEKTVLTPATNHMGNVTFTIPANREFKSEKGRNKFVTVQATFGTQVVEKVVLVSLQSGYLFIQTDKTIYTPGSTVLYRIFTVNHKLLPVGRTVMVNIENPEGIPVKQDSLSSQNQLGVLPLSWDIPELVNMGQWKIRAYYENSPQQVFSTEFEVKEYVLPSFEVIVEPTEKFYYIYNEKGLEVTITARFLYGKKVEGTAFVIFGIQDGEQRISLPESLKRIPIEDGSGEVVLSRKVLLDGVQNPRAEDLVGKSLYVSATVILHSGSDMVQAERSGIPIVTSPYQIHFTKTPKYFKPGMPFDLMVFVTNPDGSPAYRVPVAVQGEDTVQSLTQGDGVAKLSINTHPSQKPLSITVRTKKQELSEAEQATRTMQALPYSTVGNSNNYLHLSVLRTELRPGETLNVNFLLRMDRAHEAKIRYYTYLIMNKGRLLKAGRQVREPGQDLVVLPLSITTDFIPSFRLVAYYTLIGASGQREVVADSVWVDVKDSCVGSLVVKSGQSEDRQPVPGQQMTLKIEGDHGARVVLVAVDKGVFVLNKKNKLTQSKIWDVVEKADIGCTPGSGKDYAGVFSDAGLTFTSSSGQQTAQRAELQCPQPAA
# Chain of human complement C3 (human) (chain, as listed by the source, chain 2 of 2): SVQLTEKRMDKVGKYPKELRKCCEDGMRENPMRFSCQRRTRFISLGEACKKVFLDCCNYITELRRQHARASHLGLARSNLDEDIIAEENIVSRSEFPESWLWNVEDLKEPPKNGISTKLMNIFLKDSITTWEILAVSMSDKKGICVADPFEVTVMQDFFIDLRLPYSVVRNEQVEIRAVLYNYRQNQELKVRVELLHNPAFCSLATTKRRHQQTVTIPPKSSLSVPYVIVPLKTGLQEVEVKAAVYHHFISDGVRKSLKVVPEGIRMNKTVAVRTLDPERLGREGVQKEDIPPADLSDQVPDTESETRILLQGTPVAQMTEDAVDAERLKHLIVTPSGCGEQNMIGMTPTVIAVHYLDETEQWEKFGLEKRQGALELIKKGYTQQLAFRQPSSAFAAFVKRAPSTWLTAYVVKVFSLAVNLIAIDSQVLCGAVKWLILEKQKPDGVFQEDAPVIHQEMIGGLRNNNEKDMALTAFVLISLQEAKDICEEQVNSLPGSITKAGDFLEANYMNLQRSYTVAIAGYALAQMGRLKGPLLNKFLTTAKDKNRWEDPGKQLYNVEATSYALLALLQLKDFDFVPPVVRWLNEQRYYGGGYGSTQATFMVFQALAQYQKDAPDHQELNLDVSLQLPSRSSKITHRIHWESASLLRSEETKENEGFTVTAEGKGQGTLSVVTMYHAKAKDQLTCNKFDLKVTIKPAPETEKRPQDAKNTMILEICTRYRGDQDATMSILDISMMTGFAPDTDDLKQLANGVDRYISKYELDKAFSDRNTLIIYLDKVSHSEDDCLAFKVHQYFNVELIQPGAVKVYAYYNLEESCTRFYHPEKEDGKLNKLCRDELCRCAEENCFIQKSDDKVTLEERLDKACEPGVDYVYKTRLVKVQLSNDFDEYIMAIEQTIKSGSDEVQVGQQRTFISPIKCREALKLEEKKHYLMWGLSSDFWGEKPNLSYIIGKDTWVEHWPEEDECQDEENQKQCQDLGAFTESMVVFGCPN
row,Binder,Kd [µM]
1,"HtrE (natural protein, NHS ester fluorescent dye (in the MST assay only)) AELVEYDHTFLMGQNASNIDLSRYSEGNPAIPGVYDVSVYVNDQPIINQSITFVAIEGKKNAQACITLKNLLQFHINSPDINNEKAVLLARDETLGNCLNLTEIIPQASVRYDVNDQRLDIDVPQAWVMKNYQNYVDPSLWENGINAAMLSYNLNGYHSETPGRKNESIYAAFNGGMNLGAWRLRASGNYNWMTDSGSNYDFKNRYVQRDIASLRSQLILGESYTTGETFDSVSIRGIRLYSDSRMLPPTLASFAPIIHGVANTNAKVTITQGGYKIYETTVPPGAFVIDDLSPSGYGSDLIVTIEESDGSKRTFSQPFSSVVQMLRPGVGRWDISGGQVLKDDIQDEPNLFQASYYYGLNNYLTGYTGIQITDNNYTAGLLGLGLNTSVGAFSFDVTHSNVRIPDDKTYQGQSYRVSWNKLFEETSTSLNIAAYRYSTQNYLGLNDALTLIDEVKHPEQDLEPKSMRNYSRMKNQVTVSINQPLKFEKKDYGSFYLSGSWSDYWASGQNRSNYSIGYSNSTSWGSYSVSAQRSWNEDGDTDDSVYLSFTIPIEKLLGTEQRTSGFQSIDTQISSDFKGNNQLNVSSSGYSDNARVSYSVNTGYTMNKASKDLSYVGGYASYESPWGTLAGSISANSDNSRQVSLSTDGGFVLHSGGLTFSNDSFSDSDTLAVVQAPGAQGARINYGNSTIDRWGYGVTSALSPYHENRIALDINDLENDVELKSTSAVAVPRQGSVVFADFETVQGQSAIMNITRSDGKNIPFAADIYDEQGNVIGNVGQGGQAFVRGIEQQGNISIKWLEQSKPVSCLAHYQQSPEAEKIAQSIILNGIRCQIQ",5.4
2,"NfrA (natural protein, NHS ester fluorescent dye (in the MST assay only)) DNIGTSAEELGLSDYRHFVIYPRLDKALKAQKNNDEATAIREFEYIHQQVPDNIPLTLYLAEAYRHFGHDDRARLLLEDQLKRHPGDARLERSLAAIPVEVKSVTTVEELLAQQKACDAAPTLRCRSEVGQNALRLAQLPVARAQLNDATFAASPEGKTLRTDLLQRAIYLKQWSQADTLYNEARQQNTLSAAERRQWFDVLLAGQLDDRILALQSQGIFTDPQSYITYATALAYRGEKARLQHYLIENKPLFTTDAQEKSWLYLLSKYSANPVQALANYTVQFADNRQYVVGATLPVLLKEGQYDAAQKLLATLPANEMLEERYAVSVATRNKAEALRLARLLYQQEPANLTRLDQLTWQLMQNEQSREAADLLLQRYPFQGDARVSQTLMARLASLLESHPYLATPAKVAILSKPLPLAEQRQWQSQLPGIADNCPAIVRLLGDMSPSYDAAAWNRLAKCYRDTLPGVALYAWLQAEQRQPSAWQHRAVAYQAYQVEDYATALAAWQKISLHDMSNEDLLAAANTAQAAGNGAARDRWLQQAEKRGLGSNALYWWLHAQRYIPGQPELALNDLTRSINIAPSANAYVARATIYRQRHNVPAAVSDLRAALELEPNNSNTQAALGYALWDSGDIAQSREMLEPAHKGLPDDPALIRQLAYVNQRLDDMPATQHYARLVIDDIDNQALITPLTPEQNQQRFNFRRLHEEVGRRWTFSFDSSIGLRSGAMSTANNNVGGAAPGKSYRSYGQLEAEYRIGRNMLLEGDLLSVYSRVFADTGENGVMMPVKNPMSGTGLRWKPLRDQIFFIAVEQQLPLNGQNGASDTMLRASASFFNGGKYSDEWHPNGSGWFAQNLYLDAAQYIRQDIQAWTADYRVSWHQKVANGQTIEPYAHVQDNGYRDKGTQGAQLGGVGVRWNIWTGETHYDAWPHKVSLGVEYQHTFKAINQRNGERNNAFLTIGVHW",1.3
3,"YhcD (natural protein, NHS ester fluorescent dye (in the MST assay only)) DGIEIAAVDFDRETLKSLGVDPNISHYFSRSARFLPGEYSLIVSVNGEKKGNIATRFDENGDICLDQAFLQQAGLKIPSEEKNGCYDYILSYPGTTITPLPNQEALDIIVSPQAIIPIGLDLTNAATGGTAALLNYSLMSSRAEFSNGSSDYSQAALEGGININDWMLRSHQFLTQTNGTFSNQNSSTYLQRTFTDLKTLMRAGEVNLNNSVLEGASIYGIEIAPDNALQTSGSGVQVTGIANTSQARVEIRQQGVLIHSILVPAGAFTIPDVPVRNGNSDLNVTVVETDGSSHNYIVPSTLFNQHVESFQGYRFAIGRVDDDYDESPWVISASSGWNLTRWSAMNGGVIVAENYQAASIRSSLVPLPDLTVSSQISTSQDTKDSLQGQKYRLDANYNLPFSLGLTTSLTRSDRHYRELSEAIDDDYTDPTKSTYALGLNWSNSILGGFNISGYKTYSYDGDNDSSNLNINWNKAFKHATVSVNWQHQLSASENNEDDGDLFYVNISIPFGRSNTATLYTRHDDHKTHYGTGVMGVVSDEMSYYVNAERDHDERETSLNGSISSNLHYTQVSLAAGASGSDSRTYNGTMSGGIAVHDQGVTFSPWTINDTFAIAKMDNNIAGVRITSQAGPVWTDFRGNAVIPSIQPWRTSGVEIDTASLPKNVDIGNGTKMIKQGRGAVGKVGFSAITQRRALLNITLSDGKKLPRGVAIEDSEGNYLTTSVDDGVVFLNNIKPDMVLDIKDEQQSCRIHLTFPEDAPKDVFYETATGECQ",8.9

# Reference: publication PMC6658569 (2019)
